Data published in the DeepSol protein solubility set.

assay: soluble on expression in E. coli; label from the status in PepcDB or PDB records

| Sequence | soluble on expression in E. coli |
| --- | --- |
| MEANKREIVDFGGLRSYFFPNLAHYITKNDEELFNNTSQANKLAAFVLGASKDAPGDEDILEMILPNDANAAVIAAGMDVCLLLGDKFRPKFDAAAEKLSGLGHAHDLVSVIDDDKKLGMLARKAKLKKTEDAKILQALLKVIAIDDAAEKFVELTELVSQLDLDFDVYVLTKILGLISEETSDEVDIIRDNVVNAFDSCKPLLKQLMLDGPKSEPADPFISLLMDPLEESVGKVVNHIAQLFEEASKNEGDESLVLRSQLGYQLFFLIVRSLADGKREVSKKILSGIPTSVRAEVFPGLQRSVYKSAVFLGNHIIQVLLGSKKSFEDWDVVGVAKDLESAWKRRAIAELIKKFQVSILEQCFDKPVPLIPQSPLNNDAVIDNVNKALQFALWLTEFYGSENETEALGELRFLDSTSKNLLVDSFKKFVQGINSKTHVTRIVESLEKCCLSDTPSGRKSNVQPSTSQQQDSAYTKEEMTTVHNTYSVNTKAQVLNGLSDTNSSGLLVDSKDSLSLQEISCDEVDSSTLLSSSRNIGEGVTVKAVDPVPEKVNDAQQQQTVNEIEMASDANQDTSSSASPEVAPSFSTDGWDSPTKSVALPPGMQQIDEEETTVADKDSTPQPQARAETAWGSGDATPMPLPAPTNQYKVSGFGEAKVAKGFGQFAPTSSAYGGGGGRGGYGGGDRGGRGGYGGDRGGRGGYGGGDRGGRGGYGGDRGRGGYGGRGGRGGF | not soluble |
| MPYRNCWSKIMKKLINDVQDVLDEQLAGLAKAHPSLTLHQDPVYVTRADAPVAGKVALLSGGGSGHEPMHCGYIGQGMLSGACPGEIFTSPTPDKIFECAMQVDGGEGVLLIIKNYTGDILNFETATELLHDSGVKVTTVVIDDDVAVKDSLYTAGRRGVANTVLIEKLVGAAAERGDSLDACAELGRKLNNQGHSIGIALGACTVPAAGKPSFTLADNEMEFGVGIHGEPGIDRRPFSSLDQTVDEMFDTLLVNGSYHRTLRFWDYQQGSWQEEQQTKQPLQSGDRVIALVNNLGATPLSELYGVYNRLTTRCQQAGLTIERNLIGAYCTSLDMTGFSITLLKVDDETLALWDAPVHTPALNWGK | soluble |
| FVSFKHKYKVTSINEIAKDTFEITGTSLKNELKYKAGQFAFIKIPEKKSFFPSHPFTMSNSNKSNEIQFSIKVLGDHTKALKENLKVGDTLSVSGPHGKFNYENGLKHQIWIAGGIGITPFRSFWQAELPSDYTVDLFYTYNNENEGAYINELNSINKNSNLNIHSIDSSKNGFLGLEDLEKHIDKNLEYSVFFCGPKPMREKLRRDFEKVNFKIKDMNYEHFHF | not soluble |
| MSLVVKVKQKIPLKIKRMGINGEGIGFYQKTLVFVPGALKGEDIFCQITAVKRNFAEAKLLTVNKASKNRVKPACSVYETCGGCQIMHLAYPKQLDFKDDVIRQALKKFKPTGYEQFEIRPTLGMKKPDHYRAKLQFQLRSFGGTVKAGLFSQGSHRLVPIDNCLVQDQLTQDIINKITQLVDKYKLPIYNERKIAGIRTIMVRKAQASDQVQIIVVSSKEVRLANFIGELTKAFPQVKTVALNSNRSKSSEIYGDETEILWGQEAIHEEVLDYGFALSPRAFYQLNPQQTEVLYGEVVKALDVGSKDHIIDAYCGVGSIGFAFAGKVKSVRGMDIIPEAIEDAQKNAKAMGFDNAYYEAGKAEDIISKWYKQGYRADAVIVDPPRTGLDDKLLKTILHYQPKQMVYVSCNTSTLARDLVQLTKVYDVHYIQSVDMFPHTARTEAVVKLQKRVEGHHHHHH | not soluble |
| MAHHHHHHMGKPGKKAGKGLLAPTNPNRRTDPNKTSLRDQRTIKRLKMYKSKIKRDEKGNIIKGSVLKASDRIEQQMARIAPDRRWFGNTRTIGQEALQKFREEMGTKYKDPYSVIIKQSKLPLSLLEEPKNTDGSIRKEMEWDKTFGDKANRKRVRLNAVDMSTLATEANVKGDYYDCNKKEKDRDLMKGVHKDRDDKTRNGILMTKGQSNRIWCELYKVIDSSDVVLYVVDARDPMGTRSAFLEDFMRREKKYKHFVLVLNKCDLVPLWATARWLQILSKDYPTIAFHASVNHPFGKGNVISLLRQFARLHNVTHRGSKRTKTPISVGVIGYPNVGKSSLINTLRRKSVCKVAPIPGETKVWQYVALTRSIFLIDCPGVVYDRESNNDIQAVLKGVVRVERLGNADKTDVVDTVLKIVKQRDIVATYGVREWRDVVDFLEKLAKLRGKLVAGGEPDVEAAARMLLYDWQRGRLPWFNAPPFESNKHHRDAMEQPQEKHMKLIEHYSTFNVVDDTINRGDEKQDEGGDGDEETANNAADEDQLDSGSEAEKDEEAVKPLKPSKTDRLSATKADTQLATVATYMREQEEKQRKAQRQQKRKAARKGQEDVEAFSADADRESDDALWAQFLAAAKV | soluble |
| MTDAAIAEKDLGNAAYKQKDFEKAHVHYDKAIELDPSNITFYNNKAAVYFEEKKFAECVQFCEKAVEVGRETRADYKLIAKAMSRAGNAFQKQNDLSLAVQWFHRSLSEFRDPELVKKVKELEKQLKAAERLAYINPELAQEEKNKGNEYFKKGDYPTAMRHYNEAVKRDPENAILYSNRAACLTKLMEFQRALDDCDTCIRLDSKFIKGYIRKAACLVAMREWSKAQRAYEDALQVDPSNEEAREGVRNCLRSNDEDPEKAKERSLADPEVQEILRDPGMRMILEQMSNDPGAVREHLKNPEIFQKLMKLRDAGVIQMR | soluble |
| MGCSGGDATACANLAQMYENKKNADSNDKENALQLYAVACQGGDMLACNNLGWMFANGSGVPKDYYKAISYYKFSCENGNDMGCYNLGLMSNVNNIYGIDKAQLSQVDLNYLACNAGDMMGCANLGWIYANGDLGAPLNNHYAAKYFQMACDGGILGSCNNLGVLYQKGLGVPQDDQRALDLFSYACDNGFESSCRNYGNFKEHLLRVNPNYGRLFMPYNSYDIPLEHHHHHH | not soluble |
| MSLKARSPYSPAEEDALFMDLPTGPRGQQAQPQRAEKNGMLPASYGPGEQNGTGGYQRAFPPRTNPEKHSQRKSNLAQVEHWARAQKGDSRSLPLDQTLPRQGPGQSLSFPENYQTLPKSTRHPSGGSSPPPRNLPSDYKYAQDRASHLKMSSEERRAHRDGTVWQLYEWQQRQQFRHGSPTAPICLGSPEFTDQGRSRSMLEVPRSISVPPSPSDIPPPGPPRVFPPRRPHTPAERVTVKPPDQRRSVDISLGDSPRRARGHAVKNSSHVDRRSMPSMGYMTHTVSAPSLHGKSADDTYLQLKKDLEYLDLKMTGRDLLKDRSLKPVKIAESDTDVKLSIFCEQDRVLQDLEDKIRALKENKDQLESVLEVLHRQMEQYRDQPQHLEKIAYQQKLLQEDLVHIRAELSRESTEMENAWNEYLKLENDVEQLKQTLQEQHRRAFFFQEKSQIQKDLWRIEDVTAGLSANKENFRILVESVKNPERKTVPLFPHEGHHHHHH | not soluble |
| MGSDKIHHHHHHLINVAETTGLQTKAFVGEADFQIVDYAGDKCIQFKNDSVFNAMLWEMNDMSEEERNNIFSGAGFVSQWQLMQEADQEQELIVDNYEKDLSQPWPAHQIKEFKQKYDDVFMFEPYDSTDFIAHYKLKGSTYSSFVNRRGVFLIGDSVAHAPVYKALEEYFGSGISLYGNNEATNEKNDINLAESKYQIPGGDYVKVRAIPRFIELQTIENKNYLSLGFDYLSQKKKVLWKKHRTMIILRLTASGSGSGFEVYNVSIKNYQNKNGVTILLHTDVYNKLLAKDQGGMLGHVGENPRNSVTIVTPPRFEFSGRMEIWSDEMPESNKGTAKISLKEDW | not soluble |
| MANMLKIAMLSTGEEVLHGDIVDSNAAWLAREFYQHGFSLAKRATVGDSLPALVEELMMLSFNSDVVIVNGGLGPTSDDITAQAAAQAAEQPLVLNADWLSQLEAFFIGRGRAMPESNRKQAMLPANAEVIDNPIGTACGFKMQINDCWFYFTPGVPKEFYKMVSEQILPNLQRQFPSVQGQQCSRLYTFGTSESSISDKLDKMHLPEGYTLGYRSYLPFIEVKLFGPDQDQERRLSLLKIIHSHLEQYVVSIDEPMLTYLGHVMAEKGLSLALAEQATQGGLSSWLLSDPNVEALAGHSWILSHRVSSELAHQDPLAAAFALAGATKDKCGTQMALVTGALKEDHVSVALSTPNGEWGQTVKFVRRFSAQEQKEWIATLAADMLLRYLTGRSMFVGYSAVERVKEMHLPSSVLN | not soluble |
